Reference: US20110243962A1 (GENEURO, published 2011)

Key:
[1] = molecular target: T1, MSRV complete ENV protein (ENV-T), recombinant from E. coli (MSRV (Multiple Sclerosis associated …)); assay: cell-based or functional assay
T1 chain: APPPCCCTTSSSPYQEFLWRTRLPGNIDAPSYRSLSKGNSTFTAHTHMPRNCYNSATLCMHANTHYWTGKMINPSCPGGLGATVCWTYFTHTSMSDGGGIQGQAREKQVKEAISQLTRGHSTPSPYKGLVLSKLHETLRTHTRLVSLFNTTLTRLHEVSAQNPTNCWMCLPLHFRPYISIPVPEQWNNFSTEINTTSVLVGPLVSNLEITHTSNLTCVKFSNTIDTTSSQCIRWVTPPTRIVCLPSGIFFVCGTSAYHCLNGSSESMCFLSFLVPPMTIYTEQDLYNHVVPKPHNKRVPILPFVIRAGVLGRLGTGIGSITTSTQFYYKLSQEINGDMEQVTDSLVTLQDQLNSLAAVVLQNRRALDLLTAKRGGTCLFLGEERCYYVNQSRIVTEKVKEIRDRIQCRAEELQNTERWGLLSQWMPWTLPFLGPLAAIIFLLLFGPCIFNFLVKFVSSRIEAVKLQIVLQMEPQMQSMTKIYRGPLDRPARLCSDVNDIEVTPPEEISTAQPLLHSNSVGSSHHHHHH

[2] = molecular target: T2, MSRV ENV surface domain fragment (ENV-SU), recombinant from E. coli (MSRV (Multiple Sclerosis associated …)); assay: cell-based or functional assay
T2 chain: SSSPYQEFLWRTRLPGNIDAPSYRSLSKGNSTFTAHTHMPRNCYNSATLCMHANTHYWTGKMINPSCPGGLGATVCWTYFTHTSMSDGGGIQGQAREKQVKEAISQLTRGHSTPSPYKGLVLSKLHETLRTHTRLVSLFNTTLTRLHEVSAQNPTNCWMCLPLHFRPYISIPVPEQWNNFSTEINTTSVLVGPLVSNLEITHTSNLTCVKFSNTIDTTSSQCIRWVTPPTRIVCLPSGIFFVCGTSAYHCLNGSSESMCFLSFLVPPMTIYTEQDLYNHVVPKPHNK

B1: Humanized GNb AC1 IgG4 antibody (stabilized, H2 S241P heavy chain and VK3 light chain) (antibody, V domains shown)
VH: QVQLVQSGAEVKKPGSSVKVSCKASGYTFTDYEMHWVRQAPGQGLEWIGAVAPETGGTAYNQKFKGRATITADKSTSTAYMELSSLRSEDTAVYYCTSTVVPFAYWGQGTLVTVSS
VL: QIQLTQSPSSLSASVGDRVTITCSASSSVSYMYWYQQKPGKAPKAWIYRTSNLASGVPSRFSGSGSGTDYTLTISSLQPEDFATYYCQQYQSLPLTFGGGTKVEIKR
[1]
  IL-6 at 24 h in PBMC culture with ENV-T 0.1 ug/ml, MAb ratio 10/1 (no antibody: 4363): 2910
[2]
  IFN-g at 72 h in PBMC culture with ENV-SU 0.5 ug/ml, MAb ratio 10/1 (no antibody: 336): 46
